“Also recorded” adds a separate entry of the source. Blank lines part the entries; values can stand above or below the molecule they belong to.
Columns and labels:
[1] = system: chick dorsal root ganglion neurons; experiment: Neurite outgrowth assay in chick DRG neurons; format: cell-based
Description: For all experiments involving cell culture, the following methods were employed. The culture of embryonic chick E10 and E12 dorsal root ganglion explants and dissociated neurons utilized methods described for E7 dorsal root ganglion cultures (Takahashi et al., (1998) Nature Neurosci. 1, 487-493; Takahashi et al., (1999) Cell 99, 59-69; Goshima et al., (1995) Nature 376, 509-514; Jin & Strittmatter, (1997) J. Neurosci. […]). NGF-differentiated PC12 cells were cultured as described (Strittmatter et al., (1994) J. Neurosci. 14, 2327-2338). Embryonic spinal cord explants (rat E10 or chick E5) were cultured for 7-14 days in the presence of PDGF-AA to induce differentiation of some cells into mature oligodendrocytes (Vartanian et al., (1999) Proc. Natl. Acad. Sci. USA 96, 731-735). The procedure for growth cone collapse assays is identical to that for analysis of Sema3A-induced growth cone collapse (Takahashi et al., (1998) Nature Neurosci. 1, 487-493; Takahashi et al., (1999) Cell 99, 59-69; Goshima et al., (1995) Nature 376, 509-514; Jin & Strittmatter, (1997) J. Neurosci. 17, 6256-6263). The method for analysis of total neurite outgrowth has also been described (Goshima et al., (1995) Nature 376, 509-514; Jin & Strittmatter, (1997) J. Neurosci. 17, 6256-6263; Strittmatter et al., (1994) J. Neurosci. 14, 2327-2338). In outgrowth assays, proteins and peptides were added one hour after plating to minimize any effect on the total number of adherent cells. To test the effect of substrate-bound GST or GST-Nogo, the protein solutions were dried on poly-L-lysine coated glass, washed and then coated with laminin. For E12 cultures, the neuronal identity of cells was verified by staining with anti-neurofilament antibodies (2H3, Develomental Studies Hybridoma Bank) and neurites were traced by observation of rhodamine-phalloidin staining of F-actin in processes.
For neurite outgrowth assays, plastic chamber slides were coated with 100 μg ml^−1 poly-L-lysine, washed, and dried. 3 μl drops of PBS containing GST-Nogo-66 were spotted and dried. Slides were then rinsed and coated with 10 μg ml fs24^−1 laminin before addition of dissociated E12 chick DRGs. AP-fusion proteins were added at the time of cell plating. Cultures were grown for 5-7 h after which neurite outgrowth was assessed.

[2] = molecular target: chick E12 dorsal root ganglion neurons; experiment: AP-Nogo binding to chick dorsal root ganglion neurons
From the text: (a) is a photograph of a gel and an immunoblot where the His-AP-Nogo (66 amino acid) protein was expressed in HEK293T cells, and purified from conditioned medium on a Nickel-containing resin via the His tag. Purified protein was subjected to SDS-PAGE and stained for total protein with CBB or immunoblotted with anti-Nogo antibodies (anti-Nogo). Molecular weight markers of 200, 116, 97, 65 and 45 kDa are shown at left, and the migration of AP-Nogo at right. (b) is a photograph of dissociated chick E12 dorsal root ganglion neurons that were incubated with 10 nM AP-Nogo or 10 nM AP-Nogo+160 nM GST-Nogo for sixty minutes at 23° C. The cells were washed, fixed and incubated at 60° C. in order to inactivate endogenous AP. Bound AP-Nogo was detected by incubation with nitro blue tetrazolium. Note the intense neuronal staining by AP-Nogo that is displaced by unlabeled ligand. (c) is a graph displaying experimental data where the potency of AP-Nogo and GST-Nogo in E12 chick dorsal root ganglion growth cone collapse assays was assessed as described in the Example section. The EC50 of AP-Nogo was determined to be 1 nM or less. The means±s.e.m. calculated from five to eight determinations are illustrated. (d) is a graph displaying experimental data where the binding of 10 nM AP-Nogo to chick E12 dorsal root ganglion neurons was assessed alone, or in the presence of 100 nM GST-Nogo or in the presence of 4 μM Pep2, which was quantified from experiments as in (b) by the method described in the Example section. The means±s.e.m. calculated from eight determinations are shown. (e) is a graph displaying experimental data where AP-Nogo binding to dorsal root ganglion neurons was measured as a function of AP-Nogo concentration. This is one of six experiments with similar results. (f) is a graph summarizing the data from (e) replotted for Scatchard analysis. The apparent Kd for AP-Nogo binding to E12 chick dorsal root ganglion neurons is 3 nM. […]

mouse NgR = molecular target: T1, mouse NgR (Mus musculus, UniProt Q99PI8); experiment: AP-fusion protein binding to COS-7 cells expressing mouse NgR
T1 construct: expressed in transfected cells; host or cells: COS-7
T1 sequence (Q99PI8 27-473): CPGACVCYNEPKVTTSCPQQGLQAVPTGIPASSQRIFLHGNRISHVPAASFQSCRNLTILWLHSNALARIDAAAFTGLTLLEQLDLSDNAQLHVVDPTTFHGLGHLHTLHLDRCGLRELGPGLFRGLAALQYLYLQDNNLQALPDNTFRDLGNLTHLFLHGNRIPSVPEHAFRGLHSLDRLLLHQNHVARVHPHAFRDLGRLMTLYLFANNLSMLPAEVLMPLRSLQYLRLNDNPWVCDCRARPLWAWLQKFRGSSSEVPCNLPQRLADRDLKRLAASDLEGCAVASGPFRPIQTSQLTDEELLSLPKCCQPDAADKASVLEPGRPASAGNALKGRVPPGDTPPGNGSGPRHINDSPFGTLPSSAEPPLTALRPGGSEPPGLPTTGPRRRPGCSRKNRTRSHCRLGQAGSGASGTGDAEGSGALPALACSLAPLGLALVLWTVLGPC

[3] = soluble protein or peptide added to culture

Molecule: Peptide 140: synthetic peptide of amino acids #1055-1094 of the human NogoA protein, acetylated and amidated at the termini (Ac-RIYKGVIQAIQKSDEGHPFRAYLESEVAISEELVQKYSNS-NH2; UniProt Q9NQC3 1055-1094, looked up, fragment)
neurite/axon outgrowth (in words) [1, 3]: no observable effect on neurite outgrowth

B2: NgR-ecto: secreted fragment of amino acid residues 1-348 of the murine NgR, in HEK293T conditioned medium (protein)
chain: CPGACVCYNEPKVTTSCPQQGLQAVPTGIPASSQRIFLHGNRISHVPAASFQSCRNLTILWLHSNALARIDAAAFTGLTLLEQLDLSDNAQLHVVDPTTFHGLGHLHTLHLDRCGLRELGPGLFRGLAALQYLYLQDNNLQALPDNTFRDLGNLTHLFLHGNRIPSVPEHAFRGLHSLDRLLLHQNHVARVHPHAFRDLGRLMTLYLFANNLSMLPAEVLMPLRSLQYLRLNDNPWVCDCRARPLWAWLQKFRGSSSEVPCNLPQRLADRDLKRLAASDLEGCAVASGPFRPIQTSQLTDEELLSLPKCCQPDAADKASVLE
modifications: left off: small tags and cut ends
notes: secreted fragment of amino acid residues 1-348 of the murine NgR, in HEK293T conditioned medium
reduction of binding of AP-Nogo-66 ([2]; 0.5 nM AP-Nogo-66, NgR-ecto conditioned medium, dorsal root ganglion neurons): 80%
reduction of binding of AP-Nogo-66 (mouse NgR; 0.5 nM AP-Nogo-66, NgR-ecto conditioned medium, COS-7 cells expressing full length NgR): 80%

Second part, led by results:

Ki ([2]; binding of 10 nM AP-Nogo, read-out: apparent Ki in the binding assay): 150 nM
Molecule: Pep2-41: 2-41 fragment of the 66 amino acid region of Nogo, acetylated and amidated at the termini (Ac-RIYKGVIQAIQKSDEGHPFRAYLESEVAISEELVQKYSNS-NH2)

blockade of AP-Nogo binding (in words) [2]: blocked; also recorded: displaced
displacement of AP-Nogo (in words) (mouse NgR): displaces AP-Nogo
B1: GST-Nogo: GST fusion protein of the 66 amino acid lumenal-extracellular fragment of Nogo-A, expressed in E. coli (protein)
chain: RIYKGVIQAIQKSDEGHPFRAYLESEVAISEELVQKYSNSALGHVNCTIKELRRLFLVDDLVDSLK
modifications: also: GST fusion protein
notes: GST fusion protein of the 66 amino acid lumenal-extracellular fragment of Nogo-A, expressed in E. coli
neurite/axon outgrowth (in words) [1, 3]: blocked
neurite/axon outgrowth (in words) ([1]; soluble protein or peptide added to culture, listed as Nogo-66): nearly abolishes axonal extension
neurite/axon outgrowth (in words) ([1]; substrate-bound / coated surfaces): reduced to undetectable levels
neurite/axon outgrowth (in words) ([1]; substrate-bound / coated surfaces, listed as GST-hNogoA (residues #1055-1120)): dramatically reduces growth

Source: US8394929B2, “Nogo receptor-mediated blockade of axonal growth” (Yale University, priority 2000, dated 2013)
